Sequences and labels used below:
T1: long form of human leptin receptor (human, UniProt P48357 22-1165)
T1 construct: whole, on cells; The radioreceptor assay used a homogenate of the transfected BAF/3 cells; The proliferation assay used live BAF/3 1442-CI 4 cells; also called LEPR; OB-R
T1 sequence (looked up): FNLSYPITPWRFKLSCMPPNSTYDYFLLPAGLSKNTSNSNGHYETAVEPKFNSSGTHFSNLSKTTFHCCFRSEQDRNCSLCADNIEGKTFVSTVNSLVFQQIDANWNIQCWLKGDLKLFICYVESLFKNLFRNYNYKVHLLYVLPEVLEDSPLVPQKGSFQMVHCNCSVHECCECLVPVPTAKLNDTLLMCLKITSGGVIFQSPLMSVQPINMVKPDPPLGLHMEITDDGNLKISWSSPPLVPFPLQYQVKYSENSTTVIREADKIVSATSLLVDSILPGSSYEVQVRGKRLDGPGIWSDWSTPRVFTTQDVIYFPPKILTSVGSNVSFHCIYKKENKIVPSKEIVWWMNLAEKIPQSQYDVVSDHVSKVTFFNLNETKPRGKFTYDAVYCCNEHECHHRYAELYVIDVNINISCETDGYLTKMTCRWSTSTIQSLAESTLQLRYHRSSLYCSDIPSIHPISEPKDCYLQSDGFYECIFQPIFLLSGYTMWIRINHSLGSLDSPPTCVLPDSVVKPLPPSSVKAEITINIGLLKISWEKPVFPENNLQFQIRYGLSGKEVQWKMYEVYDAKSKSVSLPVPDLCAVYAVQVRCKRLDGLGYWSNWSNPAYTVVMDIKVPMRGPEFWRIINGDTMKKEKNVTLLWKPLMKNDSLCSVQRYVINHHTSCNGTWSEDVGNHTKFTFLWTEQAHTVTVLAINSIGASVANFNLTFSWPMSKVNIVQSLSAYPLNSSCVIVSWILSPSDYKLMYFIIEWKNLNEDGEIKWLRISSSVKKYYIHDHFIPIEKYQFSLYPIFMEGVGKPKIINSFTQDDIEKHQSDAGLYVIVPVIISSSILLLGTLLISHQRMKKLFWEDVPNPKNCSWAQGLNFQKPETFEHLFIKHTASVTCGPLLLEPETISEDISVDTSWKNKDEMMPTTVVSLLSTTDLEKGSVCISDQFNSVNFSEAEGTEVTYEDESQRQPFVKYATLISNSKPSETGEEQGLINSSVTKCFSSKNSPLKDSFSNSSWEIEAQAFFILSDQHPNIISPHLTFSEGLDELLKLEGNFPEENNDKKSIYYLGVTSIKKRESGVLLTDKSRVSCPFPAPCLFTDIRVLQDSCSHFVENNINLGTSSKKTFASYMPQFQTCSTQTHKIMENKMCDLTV

B1: human leptin L39A/D40A/F41A mutant (ligand)
chain: VPIQKVQDDTKTLIKTIVTRINDISHTQSVSSKQKVTGAAAIPGLHPILTLSKMDQTLAVYQQILTSMPSRNVIRISNDLENLRDLLHVLAFSKSCHLPWASGLETLDSLGGVLEASGYSTEVVALSRLQGSLQDMLWQLDLSPGC
notes: Expressed with an extra Met-Ala at the N-terminus, Met removed; also called L39A/D40A/F41A (human)
B2: human leptin F41A/I42A mutant (ligand)
chain: B1 chain with A39L, A40D, I42A
notes: Expressed with an extra Met-Ala at the N-terminus, Met removed; also called F41A/I42A (human)
B3: human leptin L39A/D40A mutant (ligand)
chain: B1 chain with A41F
notes: also called L39A/D40A (human)
B4: human leptin L39A/D40A/F41A/I42A mutant (ligand)
chain: B1 chain with I42A
notes: Expressed with an extra Met-Ala at the N-terminus, Met removed; also called L39A/D40A/F41A/I42A (human)
B5: ovine leptin L39A/D40A/F41A mutant (ligand)
chain: VSIRKVQDDTKTLIKTIVTRINDISHTQSVSSKQRVTGAAAIPGLHPLLSLSKMDQTLAIYQQILASLPSRNVIQISNDLENLRDLLHLLAASKSCPLPQVRALESLESLGVVLEASLYSTEVVALSRLQGSLQDMLRQLDLSPGC
notes: also called L39A/D40A/F41A (ovine)
B6: ovine leptin F41A/I42A mutant (ligand)
chain: B5 chain with A39L, A40D, I42A
notes: also called F41A/I42A (ovine)
B7: ovine leptin L39A/D40A/F41A/I42A mutant (ligand)
chain: B5 chain with I42A
notes: also called L39A/D40A/F41A/I42A (ovine)
B8: ovine leptin L39A/D40A mutant (ligand)
chain: B5 chain with A41F
notes: also called L39A/D40A (ovine)

This is an account of results in US20060154859A1 (YISSUM RESEARCH DEVELOPMENT COMPANY OF THE HEBREW …, published 2006).

Changes are numbered by the printed parent chain. Names may count otherwise.

The target of one experiment is T2, recombinant chicken leptin binding domain (chLBD) (chicken).
T2 construct: The 1:1 complex with leptin has a predicted mass of 40.5 kDa, so chLBD is about 24.5 kDa
As to the kind of experiment: SPR (Biacore 3000), leptin mutant amine-coupled to CM5 chip, soluble chLBD as analyte, 25 C, 1:1 Langmuir fit, mean of 2 experiments. The procedure: (v) Kinetic measurements of leptin and leptin mutants interaction with chLBD. All experiments were performed at 25° C. using surface plasmon resonance (SPR) methodology. The kinetics and equilibrium constants for the interactions between human and chicken recombinant LBD and chicken and hLep were determined using the Biacore 3000 system (Uppsala, Sweden). Leptin (human, ovine or chicken) was immobilized in a flow cell of a research-grade CM5 (carboxymethyldextran) sensor chip using amine-coupling chemistry (Johnsson et al., 1991). The immobilization steps were carried out at a flow rate of 5 μl/min in HBS-EB buffer. The surface was activated for 7 min with a mixture of 0.05 M N-hydroxysuccinimide and 0.2 M N-ethyl-N′(3-dimetylaminopropyl)-carbodiimide hydrochloride. Leptin was injected at a concentration of 50 μg/ml in 10 mM acetate, pH 3.5, until the desired level (1000 resonance units) was achieved. 1 M ethanolamine, pH 8.5, was injected for 7 min to block the remaining activated groups. A control surface was prepared by activating the carboxyl groups and then blocking the activated groups by ethanolamine as described. […] Regeneration of the surface after each interaction was performed by using 10-μl pulse of 10 mM glycine buffer, pH 2. The experiments were controlled by the kinetics Wizard of the Biacore control software, which corrects automatically for refractive index changes and non-specific binding by subtraction of the responses obtained for the control surface from the data obtained for the interactions between LBD and leptin. The obtained binding curves were fitted to the association and dissociation phases at all LBD concentrations simultaneously using Biacore evaluation software. In all cases, the best fit was obtained for a simple bimolecular interaction (Langmuir model).
To further characterize the binding capacities of chLBD with human or ovine leptins and their mutants the surface plasmon resonance (SPR) technique using respective leptin (or leptin mutant) immobilized on a sensor chip by amine coupling and binding of soluble chLBD was employed.
Take B1: the equilibrium dissociation constant (Kd) (commonly the equilibrium constant for the complex coming apart) was 28.5 nM; the off-rate constant (koff) – broadly, the rate constant with which the complex falls apart – is 0.0102 s⁻¹; the kon (commonly the second-order rate constant of association) turned out to be 358000 M⁻¹ s⁻¹.
Take B2: the Kd is 31.8 nM, the koff turned out to be 0.0115 s⁻¹ and the kon was determined as 362000 M⁻¹ s⁻¹.
In the case of B3, the dissociation constant (Kd) stood at 22.9 nM, the dissociation rate constant (koff) is 0.0125 s⁻¹ and the association rate constant (kon) is 545000 M⁻¹ s⁻¹.
Regarding B4, the Kd came to 50.3 nM, the koff amounted to 0.0068 s⁻¹ and the kon was 135000 M⁻¹ s⁻¹.
On to B5, for which the Kd is 13.8 nM, the off-rate constant (koff) was found to be 0.0025 s⁻¹ and the association rate constant (kon) was determined as 181000 M⁻¹ s⁻¹.
On the same counts, the results for B6 are 12.8 nM, 0.0032 s⁻¹ and 250000 M⁻¹ s⁻¹.
The corresponding values for B7 are 29.3 nM, 0.0032 s⁻¹ and 109000 M⁻¹ s⁻¹.
The corresponding values for B8 are 24 nM, 0.0057 s⁻¹ and 237000 M⁻¹ s⁻¹.

For another experiment, the target named is T1, long form of human leptin receptor. The experiment can be described thus: radioreceptor competition assay against iodinated leptin, homogenate of BAF/3 cells with long form of human leptin receptor, average of two experiments. The method, then:
(vi) Binding assays. Radiolabeled ovine ¹²⁵I-leptin served as a ligand and all other nonlabeled leptins or their mutants as competitors. The experiments were conducted with homogenates of BAF/3 cells stably transfected with the long form of human leptin receptor. The cells were cultured in RPMI 1640 supplemented with 5% FCS in the -presence of IL-3 to minimize leptin receptors down-regulation till concentration of 10⁶ cells/ml was reached. Then the cells were spun and stored at −70° C. […] Each tube contained 150 μl of reaction buffer, 100 μl ¹²⁵I-human leptin (700,000-800,000 cpm) and 100 μl of different leptin solutions (providing 0-5000 ng/tube) in reaction buffer and the reaction was started by addition of 150 μl homogenate. The tubes were incubated for 18 h at room temperature. Then the leptin-receptor complex was precipitated by adding 250 μl of 1% (w/v) bovine immunoglobulin and 500 μl of 20% (w/v) polyethylene glycol. The tubes were thoroughly mixed, incubated for 30 min at 4° C., and centrifuged at 12,000 g for 15 min at 4° C. Then supernatant was carefully aspirated and the precipitates were counted in a γ counter. Human leptin was iodinated according to a protocol previously described for the iodination of hGH (Gertler et al., 1984).
Iodinated human leptin served as the ligand in all competitive experiments and the respective wild-type (WT) human and ovine leptins and their alanine mutants as competitors. Freshly prepared homogenate of BAF/3 cells stably transfected with the long form of human leptin receptor served as receptor source. Homogenate from 1.75×10⁶ cells was used per tube giving 6 to 7% specific binding.
Regarding B1, the concentration for half-maximal inhibition (IC50) (usually the concentration needed to halve the response being measured) came out at 5.21 nM.
In turn, B2 gave an IC50 of 6.82 nM.
Take B3: the IC50 came to 4.16 nM.
Same read-out and setting: the figure for B4 is 5.43 nM; for B5 it is 2.2 nM; for B6 it is 3.44 nM.
The same measure, in the same setting: the figure for B7 is 1.83 nM; for B8 it is 1.83 nM.
